Experimental data published in US20220056118A1 (UNIVERSITY OF BRITISH COLUMBIA, published 2022).

Legend:
[1] = molecular target: T1, DAGWGNLc (SEQ ID NO: 9) peptide conjugated to bovine serum albumin (human; bovine, UniProt P02769 25-607, N-terminus acetylated; C-terminal Cys conjugated to BSA); experiment: SPR, peptide-BSA immobilized (about 50 RU), antibody injected, Langmuir 1:1 fit
T1 construct: TDP-43 residues 65-71 plus an added C-terminal cysteine; also called Peptide conjugated to bovine serum albumin (BSA)
T1 sequence (P02769 25-607 limits assumed): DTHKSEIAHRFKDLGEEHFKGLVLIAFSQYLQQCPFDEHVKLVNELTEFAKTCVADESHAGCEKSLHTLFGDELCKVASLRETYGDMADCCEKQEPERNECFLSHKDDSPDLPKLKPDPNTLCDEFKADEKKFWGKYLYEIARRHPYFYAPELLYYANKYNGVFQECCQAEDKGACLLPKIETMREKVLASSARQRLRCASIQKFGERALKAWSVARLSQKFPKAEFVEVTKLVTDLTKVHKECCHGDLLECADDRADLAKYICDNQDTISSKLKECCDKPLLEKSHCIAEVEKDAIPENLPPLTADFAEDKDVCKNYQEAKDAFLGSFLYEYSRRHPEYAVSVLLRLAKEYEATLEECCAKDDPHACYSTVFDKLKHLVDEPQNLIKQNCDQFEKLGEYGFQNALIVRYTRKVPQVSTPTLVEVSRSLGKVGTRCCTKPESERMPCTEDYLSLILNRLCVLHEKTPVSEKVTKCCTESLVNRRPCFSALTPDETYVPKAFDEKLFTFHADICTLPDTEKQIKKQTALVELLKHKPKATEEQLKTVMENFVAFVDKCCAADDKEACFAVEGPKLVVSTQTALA
Protocol: Surface plasmon resonance (SPR) analysis was used to measure the binding kinetics of monoclonal antibodies to the peptide epitope. Peptide conjugated to bovine serum albumin (BSA) was immobilized at a very low density (approximately 50 RUs) on flow cells of a sensor chip. Purified mouse or rabbit monoclonal antibodies diluted 4-fold from 31.25 nM to 0.24 nM were injected sequentially over the surfaces for approximately 5 min followed by dissociation in buffer and surface regeneration. Binding parameters were calculated using kinetic curve fitting and a Langmuir 1:1 interaction model.

[2] = molecular target: T2, HA-tagged wild-type human TDP-43 with the original NLS sequence (WT-TDP43) (human, UniProt Q13148 1-414); experiment: immunocytochemistry, transfected HEK293FT cells; column: Binding to nuclear WT TDP-43
T2 construct: whole, on cells; Overexpressed inside transfected HEK293FT cells; also called wildtype TDP-43-HA; WT nuclear TDP-43-HA; not shown: HA tag
T2 sequence (Q13148 whole entry): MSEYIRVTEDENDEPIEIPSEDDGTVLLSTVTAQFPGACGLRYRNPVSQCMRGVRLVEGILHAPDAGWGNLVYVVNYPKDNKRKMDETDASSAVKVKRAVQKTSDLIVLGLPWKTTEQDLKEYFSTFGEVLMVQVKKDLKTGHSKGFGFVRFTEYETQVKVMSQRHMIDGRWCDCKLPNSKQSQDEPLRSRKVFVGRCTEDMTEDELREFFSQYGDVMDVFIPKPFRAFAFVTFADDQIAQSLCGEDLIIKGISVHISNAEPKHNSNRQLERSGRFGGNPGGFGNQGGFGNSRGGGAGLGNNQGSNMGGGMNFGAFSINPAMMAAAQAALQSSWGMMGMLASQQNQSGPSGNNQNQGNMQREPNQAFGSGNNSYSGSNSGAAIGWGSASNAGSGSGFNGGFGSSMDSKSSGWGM

[3] = molecular target: T3, endogenous TDP-43 of HEK293FT cells (human, UniProt Q13148 1-414); experiment: immunocytochemistry, arsenite-stressed HEK293FT cells; column: Binding to stress granules
T3 construct: whole, on cells; Two states of the same protein are tested: nuclear in cells transfected with empty vector, and in the stress granules of cells stressed with sodium arsenite; the state is named in each row; also called endogenous, nuclear WT TDP-43; TDP-43 in physiologic stress granules
T3 sequence (Q13148 whole entry): as above

Row | Kd [1] | koff [1] | kon [1] | binding result [2] | binding result [3] | Binder
1 | 91.9 pM | 4.32e-05 s⁻¹ | 470000 M⁻¹ s⁻¹ | – | – | rabbit monoclonal antibody 17 (17H3-17K3) (antibody, V domains shown, Recombinant; also called Rabbit 17; clone 17) VH: QEQLVESGGGLVQPGASLTLTCTASGFSFSSSYVMCWVRQAPGKGLEWITCSDTGINTWYASWAKGRFTISKTSSTTVTLQMTSLTAADTATYFCARRYTGDTYLGNFNLWGQGTLVTVS VL: AQVLTQTPASVSAAVGGTVTINCQASQSVYKNNYLSWYQQKPGQPPKLLIYKASTLASGVPSRFKGSGSGTQFTLTISDVQCDDAATYYCAGGWRSLNAFGGGTEVVVK
2 | 15.1 pM | 9.04e-06 s⁻¹ | 599000 M⁻¹ s⁻¹ | no binding (tested: 10 ug/ml) | no binding (tested: 10 ug/ml) | rabbit monoclonal antibody 14 (14H1-14K2) (antibody, V domains shown, Recombinant; also called Rabbit 14; clone 14) VH: QEQLEESGGDLVKPEGSLTLTCTASGFSFSSNYVMCWVRQAPGKGLEWVACIWFAGIVDTTYYATWAKGRFTISKTSSTTVTLQMTSLTAADTATYFCARNPVGSVNLWGQGTLVTVS VL: VMTQTPSSKSVPVGGSVTINCQASESVYSNNRLSWYQQKPGQPPKLLIYYASTLESGVPSRFKGSGFGTHFTLTISGAQCDDAATYYCAGWRGARTDGVDFGGGTEVVVK
3 | 622 pM | 0.00176 s⁻¹ | 2.83e+06 M⁻¹ s⁻¹ | – | – | mouse monoclonal antibody 2F7 (antibody, V domains shown, Mouse hybridoma antibody; also called Mouse 2F7) VH: DVKLVESGGGLVKLGGSLKLSCAASGFTFSSYYMSWVRQTPEKRLELVATINSNGGSTYYPDTVKGRITISRDNAKNTLQLQMSSLRSEDTALYYCVRQNYEGAYWGQGTLVTVSA VL: DVLMTQTPLSLPVTLGDQASISCRSSQSIVHSNGNTYLEWYLQKPGQSPKLLIYKVSNRFSGVPDRFSGSGSGTDFTLKISRVEAEDLGVYYCFQSSHVPWTFGGGTKLEIK
4 | 722 pM | 0.002 s⁻¹ | 2.77e+06 M⁻¹ s⁻¹ | – | – | mouse monoclonal antibody 3E8 (antibody, V domains shown, Mouse hybridoma antibody; also called Mouse 3E8) VH: DVKLVESGGGLVKLGGSLKLSCAASGFTFSSYYMSWVRQTPEKRLELVATINSNGGSTYYPDTVKGRITISRDNAKNTLQLQMSSLRSEDTALYYCVRQNYEGAYWGQGTLVTVSA VL: DVLMTQTPLSLPVTLGDQASISCRSSQSIVHSNGNTYLEWYLQKPGQSPKLLIYKVSNRFSGVPDRFSGSGSGTDFTLKISRVEAEDLGVYYCFQSSHVPWTFGGGTKLEIK
5 | 62 pM | 2.5e-05 s⁻¹ | 403000 M⁻¹ s⁻¹ | – | – | rabbit monoclonal antibody 1 (1H3-1K3) (antibody, V domains shown, Recombinant; also called Rabbit 1; clone 1) VH: QSVEESGGRLVTPGTPLTLTCTVSGFSLSRYYMTWVRQAPGKGLEYIGVIIPGGTTYYASWAKGRFTISKTSTTVDLRITSPTTEDTATYFCAGGPTGNSHFTLWGQGTLVTVS VL: VMTQTPSSKSVPVGGTVTINCQASESVYNNNHLSWYQQKSGQPPKLLIYEASKLESGVPPRFKGSGSGTQFTLTISDVVCDDAATYYCSGYKRVTTDGIAFGGGTEVVVK
6 | – | – | – | no binding (tested: 10 ug/ml) | no binding (tested: 10 ug/ml) | rabbit monoclonal antibody 38 (38H1-38K1) (antibody, V domains shown, Recombinant; also called clone 38) VH: QSVEESGGRLVTPGTPLTLTCTVSGFSFSAYYMTWVRQAPGKGLEFIGVTIPIGRTYYASWAKGRFTISKTSTTVHLKITSPTTEDTAAYFCAGGPTGNSHFTLWGQGTLVTVS VL: VMTQTPSSKSVPVGDTVTINCQASESVYNNNQLSWYQQKPGQPPKLLIYQASKLESGVPSRFKGSGSGTQFTLTISDVVCDDAATYYCAGYKSPTTDGIAFGGGTEVVVK
